# Source: patent publication US20200317768A1 (published 2020)
# Residue numbers refer to the chain shown, from its start.
# T1: cynomolgus monkey FcγRIIIaS extracellular domain, His-tagged (cynomolgus monkey, UniProt Q8SPW2 21-206 at identity 1.00))
# T1 construct: also called cyno FcγRIIIaS; cynoFcγRIIIaS
# T1 chain: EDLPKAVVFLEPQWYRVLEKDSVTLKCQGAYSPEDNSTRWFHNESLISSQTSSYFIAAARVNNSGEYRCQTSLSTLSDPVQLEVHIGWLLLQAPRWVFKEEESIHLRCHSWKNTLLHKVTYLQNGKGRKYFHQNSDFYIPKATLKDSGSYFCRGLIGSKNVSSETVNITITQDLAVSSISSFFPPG
# T2: human FcγRIIaR extracellular domain, His-tagged (human, UniProt P12318 34-217)
# T2 construct: also called human FcγRIIa (type R); FcgRIIaR
# T2 chain: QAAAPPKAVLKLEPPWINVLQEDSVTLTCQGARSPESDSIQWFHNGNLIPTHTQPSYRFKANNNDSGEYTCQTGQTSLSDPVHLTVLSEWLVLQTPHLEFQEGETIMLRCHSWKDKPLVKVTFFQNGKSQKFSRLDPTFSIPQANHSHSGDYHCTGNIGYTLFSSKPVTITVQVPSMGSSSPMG
# T3: cynomolgus monkey FcγRIIa1 extracellular domain, His-tagged (cynomolgus monkey)
# T3 construct: also called cyno FcγRIIa1; cynoFcgRIIa1
# T3 chain: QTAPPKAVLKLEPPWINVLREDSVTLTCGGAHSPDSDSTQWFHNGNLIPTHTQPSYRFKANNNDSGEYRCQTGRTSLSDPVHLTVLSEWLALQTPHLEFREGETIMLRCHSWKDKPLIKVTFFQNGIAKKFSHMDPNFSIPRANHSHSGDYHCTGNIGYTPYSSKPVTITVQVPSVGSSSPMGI
# T4: cynomolgus monkey FcγRIIa2 extracellular domain, His-tagged (cynomolgus monkey)
# T4 construct: also called cyno FcγRIIa2; cynoFcgRIIa2
# T4 chain: T3 chain with P95T, T121A, I127K, A128S, K130N, D135N, R142Q
# T5: cynomolgus monkey FcγRIIa3 extracellular domain, His-tagged (cynomolgus monkey)
# T5 construct: also called cyno FcγRIIa3; cynoFcgRIIa3
# T5 chain: T3 chain with P95T, T121A, A128S, H133P, D135N
# T6: human FcγRIIb extracellular domain, His-tagged (human, UniProt P31994 43-217)
# T6 construct: also called FcgRIIb (human)
# T6 sequence: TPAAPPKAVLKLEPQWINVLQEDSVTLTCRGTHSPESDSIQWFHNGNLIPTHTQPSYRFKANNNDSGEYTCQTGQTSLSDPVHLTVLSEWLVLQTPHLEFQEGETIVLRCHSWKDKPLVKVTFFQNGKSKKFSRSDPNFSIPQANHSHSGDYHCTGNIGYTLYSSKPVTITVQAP
# T7: cynomolgus monkey FcγRIIb extracellular domain, His-tagged (cynomolgus monkey)
# T7 construct: also called cyno FcγRIIb; cynoFcγRIIb
# T7 chain: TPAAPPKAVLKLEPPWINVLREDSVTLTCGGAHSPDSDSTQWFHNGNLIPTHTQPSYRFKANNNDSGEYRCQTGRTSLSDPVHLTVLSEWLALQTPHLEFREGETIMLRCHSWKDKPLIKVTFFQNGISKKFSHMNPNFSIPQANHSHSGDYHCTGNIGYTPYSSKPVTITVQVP
# B1: M103205H795-MY065/M103202L889-SK1 (antibody, human IgG1, kappa)
# heavy: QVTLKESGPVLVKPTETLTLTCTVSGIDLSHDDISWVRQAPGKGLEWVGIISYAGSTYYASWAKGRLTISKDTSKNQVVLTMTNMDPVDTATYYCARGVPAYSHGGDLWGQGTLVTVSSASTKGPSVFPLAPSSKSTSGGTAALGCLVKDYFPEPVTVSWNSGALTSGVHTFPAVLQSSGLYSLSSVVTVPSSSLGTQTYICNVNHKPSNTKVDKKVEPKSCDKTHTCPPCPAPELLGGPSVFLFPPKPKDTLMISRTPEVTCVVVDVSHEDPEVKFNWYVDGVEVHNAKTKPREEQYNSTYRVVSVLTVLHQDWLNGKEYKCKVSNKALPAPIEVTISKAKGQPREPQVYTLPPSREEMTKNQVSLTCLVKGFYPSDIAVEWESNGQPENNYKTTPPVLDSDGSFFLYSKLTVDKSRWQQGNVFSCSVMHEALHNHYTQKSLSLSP
# light: DIVMTQSPATLSLSPGERATLSCTSSQSVYHANWLSWFQQKPGQPPKLLIYWASTLAYGVPSRFSGSGSGTDFTLTISSLQPEDAATYYCAGGYGGGRYAFGQGTKVEIKRTVAAPSVFIFPPSDEQLKSGTASVVCLLNNFYPREAKVQWKVDNALQSGNSQESVTEQDSKDSTYSLSSTLTLSKADYEKHKVYACEVTHQGLSSPVTKSFNRGEC
# notes: Substitution put into M103205H795-SG1
# B2: M103205H795-MY068/M103202L889-SK1 (antibody, human IgG1, kappa)
# heavy: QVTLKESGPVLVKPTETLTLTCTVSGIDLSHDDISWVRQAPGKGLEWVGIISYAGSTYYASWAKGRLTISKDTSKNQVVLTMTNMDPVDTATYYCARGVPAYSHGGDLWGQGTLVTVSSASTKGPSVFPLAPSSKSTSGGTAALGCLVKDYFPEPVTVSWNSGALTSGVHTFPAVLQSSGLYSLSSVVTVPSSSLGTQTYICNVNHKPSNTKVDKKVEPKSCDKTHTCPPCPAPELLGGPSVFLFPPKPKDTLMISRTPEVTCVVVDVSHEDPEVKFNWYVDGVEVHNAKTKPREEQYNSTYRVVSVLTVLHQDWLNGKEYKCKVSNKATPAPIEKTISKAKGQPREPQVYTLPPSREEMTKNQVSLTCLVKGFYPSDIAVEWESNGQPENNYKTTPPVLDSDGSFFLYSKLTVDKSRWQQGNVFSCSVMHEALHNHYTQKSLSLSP
# light: B1 light
# notes: as for B1
# B3: M103205H795-MY073/M103202L889-SK1 (antibody, human IgG1, kappa)
# heavy: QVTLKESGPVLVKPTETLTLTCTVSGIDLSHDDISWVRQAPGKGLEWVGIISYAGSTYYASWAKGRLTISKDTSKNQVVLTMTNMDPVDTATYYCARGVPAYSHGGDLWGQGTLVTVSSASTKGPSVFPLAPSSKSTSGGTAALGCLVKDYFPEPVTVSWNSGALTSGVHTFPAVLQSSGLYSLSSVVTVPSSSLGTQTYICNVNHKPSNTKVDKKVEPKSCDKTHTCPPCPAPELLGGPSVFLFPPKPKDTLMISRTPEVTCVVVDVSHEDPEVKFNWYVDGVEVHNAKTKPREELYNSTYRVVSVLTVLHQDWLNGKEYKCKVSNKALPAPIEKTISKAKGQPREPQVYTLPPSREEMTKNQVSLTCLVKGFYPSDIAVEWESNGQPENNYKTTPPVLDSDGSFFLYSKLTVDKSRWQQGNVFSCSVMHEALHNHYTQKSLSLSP
# light: B1 light
# notes: as for B1
# B4: M103205H795-MY070/M103202L889-SK1 (antibody, human IgG1, kappa)
# heavy: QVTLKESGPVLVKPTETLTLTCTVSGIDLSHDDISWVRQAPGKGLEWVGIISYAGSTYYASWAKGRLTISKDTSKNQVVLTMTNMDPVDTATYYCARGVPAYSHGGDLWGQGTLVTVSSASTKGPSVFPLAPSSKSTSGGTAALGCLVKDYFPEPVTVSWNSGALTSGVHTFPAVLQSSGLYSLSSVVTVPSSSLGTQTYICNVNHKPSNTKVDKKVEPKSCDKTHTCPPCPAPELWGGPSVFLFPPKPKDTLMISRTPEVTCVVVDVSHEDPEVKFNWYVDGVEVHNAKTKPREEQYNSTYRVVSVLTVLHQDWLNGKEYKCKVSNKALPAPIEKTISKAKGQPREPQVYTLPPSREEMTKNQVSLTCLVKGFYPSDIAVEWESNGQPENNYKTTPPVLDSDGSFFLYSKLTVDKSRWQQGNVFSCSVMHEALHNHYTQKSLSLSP
# light: B1 light
# notes: as for B1
# B5: M103205H795-MY069/M103202L889-SK1 (antibody, human IgG1, kappa)
# heavy: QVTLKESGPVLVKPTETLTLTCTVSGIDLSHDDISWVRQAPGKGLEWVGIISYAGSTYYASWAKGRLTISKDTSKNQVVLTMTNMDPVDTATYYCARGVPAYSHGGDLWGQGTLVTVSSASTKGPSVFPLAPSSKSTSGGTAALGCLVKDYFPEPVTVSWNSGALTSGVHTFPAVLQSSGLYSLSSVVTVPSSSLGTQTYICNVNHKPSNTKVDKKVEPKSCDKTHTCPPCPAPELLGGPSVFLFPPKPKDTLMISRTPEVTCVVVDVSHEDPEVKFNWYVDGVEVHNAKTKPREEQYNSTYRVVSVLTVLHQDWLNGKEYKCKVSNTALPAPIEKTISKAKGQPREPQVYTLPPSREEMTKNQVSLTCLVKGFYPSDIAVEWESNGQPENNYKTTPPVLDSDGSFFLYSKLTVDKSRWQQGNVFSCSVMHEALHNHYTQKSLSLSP
# light: B1 light
# notes: as for B1
# B6: M103205H795-MY124/M103202L889-SK1 (antibody, human IgG1, kappa)
# heavy: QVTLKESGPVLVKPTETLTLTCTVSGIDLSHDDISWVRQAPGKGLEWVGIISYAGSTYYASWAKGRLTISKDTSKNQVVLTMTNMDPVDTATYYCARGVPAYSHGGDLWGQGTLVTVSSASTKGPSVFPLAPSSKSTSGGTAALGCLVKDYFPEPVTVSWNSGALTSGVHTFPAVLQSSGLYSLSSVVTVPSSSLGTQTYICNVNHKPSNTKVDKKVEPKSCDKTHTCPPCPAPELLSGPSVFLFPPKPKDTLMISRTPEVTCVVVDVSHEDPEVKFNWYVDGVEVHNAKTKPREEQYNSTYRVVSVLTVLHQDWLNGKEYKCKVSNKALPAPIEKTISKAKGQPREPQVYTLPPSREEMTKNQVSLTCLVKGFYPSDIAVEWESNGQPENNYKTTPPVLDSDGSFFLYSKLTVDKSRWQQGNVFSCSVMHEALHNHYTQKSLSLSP
# light: B1 light
# notes: as for B1
# B7: M103205H795-MY072/M103202L889-SK1 (antibody, human IgG1, kappa)
# heavy: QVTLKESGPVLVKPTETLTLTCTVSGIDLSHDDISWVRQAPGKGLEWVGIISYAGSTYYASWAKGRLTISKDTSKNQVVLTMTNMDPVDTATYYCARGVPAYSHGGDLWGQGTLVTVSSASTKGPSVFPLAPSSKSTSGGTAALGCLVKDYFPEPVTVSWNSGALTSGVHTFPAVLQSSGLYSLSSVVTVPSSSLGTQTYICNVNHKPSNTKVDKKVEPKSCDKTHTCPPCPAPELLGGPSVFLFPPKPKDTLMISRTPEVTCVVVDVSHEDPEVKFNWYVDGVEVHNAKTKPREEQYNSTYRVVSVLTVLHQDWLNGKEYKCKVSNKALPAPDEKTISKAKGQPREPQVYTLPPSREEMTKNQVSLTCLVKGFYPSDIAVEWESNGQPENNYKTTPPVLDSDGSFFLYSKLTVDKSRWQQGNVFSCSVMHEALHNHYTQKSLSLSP
# light: B1 light
# notes: as for B1
# B8: M103205H795-MY071/M103202L889-SK1 (antibody, human IgG1, kappa)
# heavy: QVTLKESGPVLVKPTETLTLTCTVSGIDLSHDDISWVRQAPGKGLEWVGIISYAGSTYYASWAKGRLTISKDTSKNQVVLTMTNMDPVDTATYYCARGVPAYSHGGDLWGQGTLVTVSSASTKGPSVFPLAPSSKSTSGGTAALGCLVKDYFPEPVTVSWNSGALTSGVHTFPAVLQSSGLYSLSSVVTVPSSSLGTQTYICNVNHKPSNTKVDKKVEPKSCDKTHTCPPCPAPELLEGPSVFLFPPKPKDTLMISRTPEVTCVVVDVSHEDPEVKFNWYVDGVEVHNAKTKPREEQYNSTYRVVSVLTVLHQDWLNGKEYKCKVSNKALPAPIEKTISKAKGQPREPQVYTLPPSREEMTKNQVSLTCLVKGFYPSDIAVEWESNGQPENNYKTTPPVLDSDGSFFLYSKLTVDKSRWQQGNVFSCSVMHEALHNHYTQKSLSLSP
# light: B1 light
# notes: as for B1
# B9: M103205H795-MY196/M103202L889-SK1 (antibody, human IgG1, kappa)
# heavy: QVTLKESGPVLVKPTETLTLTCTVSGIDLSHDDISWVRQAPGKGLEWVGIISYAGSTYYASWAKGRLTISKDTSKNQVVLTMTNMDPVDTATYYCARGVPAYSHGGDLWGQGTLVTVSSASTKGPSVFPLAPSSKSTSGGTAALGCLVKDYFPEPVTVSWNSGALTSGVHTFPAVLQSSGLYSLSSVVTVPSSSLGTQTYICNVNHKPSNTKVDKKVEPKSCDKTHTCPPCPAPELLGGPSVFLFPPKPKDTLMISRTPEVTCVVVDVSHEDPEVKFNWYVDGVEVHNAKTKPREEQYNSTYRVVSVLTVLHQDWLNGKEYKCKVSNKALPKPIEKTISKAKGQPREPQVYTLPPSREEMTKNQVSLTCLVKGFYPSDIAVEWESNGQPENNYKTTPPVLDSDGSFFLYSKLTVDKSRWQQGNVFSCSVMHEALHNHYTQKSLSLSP
# light: B1 light
# notes: as for B1
# Biological target: T1, cynomolgus monkey FcγRIIIaS …
# Assay: SPR; KD of SG1 / KD of variant;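 also: relative to parent M103205H795-SG1 carrying the SG1 human heavy chain constant region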
row,Binder,KD fold (SG1 = 1) [fold]
1,B1,3.27
2,B2,0.67
3,B3,2.12
4,B4,0.73
5,B5,4.19
6,B6,0.28
7,B7,6.79
8,B8,1.29
9,B9,0.6

# Biological target: T2, human FcγRIIaR extracellular domain, …
# Assay: SPR; KD of SG1 / KD of variant;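 also: relative to parent M103205H795-SG1 carrying the SG1 human heavy chain constant region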
row,Binder,KD fold (SG1 = 1) [fold]
1,B1,2.2
2,B2,2.1
3,B3,2.2
4,B4,1.5
5,B5,2.8
6,B6,2.1
7,B7,2.3
8,B8,2.4
9,B9,0.8

# Biological target: T3, cynomolgus monkey FcγRIIa1 …
# Assay: SPR; KD of SG1 / KD of variant;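 also: relative to parent M103205H795-SG1 carrying the SG1 human heavy chain constant region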
row,Binder,KD fold (SG1 = 1) [fold]
1,B1,1.4
2,B2,1.5
3,B3,2.7
4,B4,1.4
5,B5,2
6,B6,1.7
7,B7,3.2
8,B8,0.6
9,B9,1.3

# Biological target: T4, cynomolgus monkey FcγRIIa2 …
# Assay: SPR; KD of SG1 / KD of variant;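 also: relative to parent M103205H795-SG1 carrying the SG1 human heavy chain constant region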
row,Binder,KD fold (SG1 = 1) [fold]
1,B1,1.8
2,B2,1.9
3,B3,8.9
4,B4,1.8
5,B5,3.2
6,B6,1.6
7,B7,4.3
8,B8,1.4
9,B9,1.7

# Biological target: T5, cynomolgus monkey FcγRIIa3 …
# Assay: SPR; KD of SG1 / KD of variant
row,Binder,KD fold (SG1 = 1) [fold]
1,B1,4
2,B2,3
3,B3,3.3
4,B4,3.6
5,B5,2.6
6,B6,1.4
7,B7,6.5
8,B8,1.5
9,B9,0.7

# Biological target: T6, human FcγRIIb extracellular domain, …
# Assay: SPR; KD of SG1 / KD of variant
row,Binder,KD fold (SG1 = 1) [fold]
1,B1,2.4
2,B2,2.7
3,B3,2.3
4,B4,1.8
5,B5,2.9
6,B6,0.5
7,B7,3.1
8,B8,1.9
9,B9,0.7

# Biological target: T8, human FcγRIIIaV extracellular domain, His-tagged (human, UniProt P08637 17-208)
# T8 construct: also called FcgRIIIaV
# Assay: SPR; KD of SG1 / KD of variant
# T8 sequence (P08637 17-208 F176V): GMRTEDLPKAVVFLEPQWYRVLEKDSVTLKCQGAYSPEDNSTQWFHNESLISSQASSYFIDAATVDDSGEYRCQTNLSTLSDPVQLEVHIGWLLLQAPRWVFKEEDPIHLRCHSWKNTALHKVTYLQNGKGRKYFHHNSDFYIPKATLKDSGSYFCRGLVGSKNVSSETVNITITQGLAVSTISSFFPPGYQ
row,Binder,KD fold (SG1 = 1) [fold]
1,B1,3.52
2,B2,0.58
3,B3,2.38
4,B4,1.16
5,B5,3.38
6,B6,0.16
7,B7,6.75
8,B8,1.59
9,B9,0.37

# Biological target: T7, cynomolgus monkey FcγRIIb extracellular …
# Assay: SPR; KD of SG1 / KD of variant
row,Binder,KD fold (SG1 = 1) [fold]
1,B1,1.4
2,B2,1.8
3,B3,2.7
4,B4,1.5
5,B5,2.5
6,B6,0.8
7,B7,3.8
8,B8,0.7
9,B9,0.8
